What all share (type): biochemical, Z. mays
Series [1] relates to 4-hydroxyphenylpyruvate dioxygenase (HPPD). Description: Estimate of kcat from initial rate at saturating hydroxyphenylpyruvate without inhibitor (ON rate ratio assay). The gist of the method:
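Reactions used 60 or 120 nM HPPD and saturating 100 μM hydroxyphenylpyruvate without inhibitor. kcat was estimated from the initial rate at the known enzyme concentration.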

For series [2] the test system is unchanged. Nature of the series: ON rate ratio: HPPD reaction rate with vs without inhibitor in the 70 to 90 second interval. The gist of the method:
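Time courses of HPPD reactions, 60 or 120 nM enzyme with 100 μM HPP substrate, run with and without 4 μM inhibitor (e.g. mesotrione, tembotrione). Value is the rate with inhibitor over rate without, taken over 70–90 s; higher ratio reflects slower kON.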

The test system is the same in series [3]. Description: Insensitivity parameter (ON × OFF) and trait fitness (ON × OFF × kcat/KM or × kcat). The arrangement: key to ON × OFF / Insensitivity, mesotrione, ON × OFF / Insensitivity, tembotrione, ON × OFF / Insensitivity, topramezone, ON × OFF / Insensitivity, sulcotrione, ON × OFF / Insensitivity, isoxaflutole (DKN), ON × OFF: insensitivity = ON rate ratio × OFF rate ratio (surrogate for KD). The gist of the method: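 Calculated, not measured directly: ON rate ratio × OFF rate ratio gives an insensitivity parameter serving as a KD surrogate.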

Series [4] shares this test system. Description: HPPD activity coupled assay with HGD; substrate saturation kinetic parameters (kcat, KM). To be noted: substrate saturation kinetic analysis. The method in brief: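 Coupled continuous assay: His-tagged HPPD (5 to 240 nM, E. coli-expressed, Ni-NTA-purified) with 50 nM P. aeruginosa HGD in 25 mM Hepes pH 7, 2 mM ascorbate, 10 μM FeSO4; maleylacetoacetate followed at 320 nm. KM and Vmax from Lineweaver-Burke fits over 3.33–100 μM HPP.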

The test system is the same in series [5]. Nature of the series: OFF rate ratio: release of inhibitor from pre-formed enzyme-inhibitor complex. The gist of the method:
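HPPD (7.2 μM) pre-incubated 1 h at RT with inhibitor (8 μM), then diluted into 25 mM Hepes pH 7, 2 mM ascorbate, 10 μM FeSO4, 100 μM HPP, 50 nM HGD; A320 followed 12 min. Ratio = steady-state rate with inhibitor over initial rate of inhibitor-free enzyme.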

The mark [6] stands for this setting: Table 7, tembotrione, combinatorial variants.

B1: P056028-F-05 (protein)
chain: MGPTPTATAAGAAVAAASAAEQAAFRLVGHRNFVRFNPRSDRFQTLAFHHVELWCADAASAAGRFSFALGVPLAARSDLSTGNSAHASLLLRSGSLSLLFTAPYAHGADAATAALPSFSAAAARRFAADHGLAVRAVALRVADAEDAFRASVAAGARPAFGPVDLGRGFRLAEVELYGDVVLRYVSYPDGGAGEPFLPGFEGVASPGAADYGLSRFDHIVGNVPELAPAAAYMAGFTGFHEFAEFTTEDVGTTESGLNSMALANNSENVLLPLNEPVHGTKRRSQIQTFLDHHGGPGVQHIALASDDVLRTLREMRARSAMGGFEFLPPPLSDYYDGVRRCAGDVLTEAQINECQELGVMVDRDDEGVLLQIFTKPVGDRPTFFLEIIQRIGCMEKDEKGQEYQKGGCGGFGKGNFGQLFKSIEDYEKSLEAKQAAAAATAQGS
modifications: Zea mays variant form created by artificial means.
Take B1: the turnover number (kcat) in series [1] (Megatable 3, shuffled variants) was 0.457 s⁻¹. Also, in series [1] (Table 7, combinatorial variants), the kcat is 0.457 s⁻¹. In series [2] (setting [6]), the ON rate ratio is given as 0.700. The “Insensitivity, mesotrione, Rate ratio ON” value in series [2] (inhibitor mesotrione) stood at 0.64. Besides, the “Insensitivity, tembotrione, Rate ratio ON” value in series [2] (inhibitor tembotrione) was found to be 0.70. Further, in series [3] (Megatable 3, shuffled variants), the “ON × OFF” value worked out at 0.276 and the “ON × OFF × kcat” value came to 7.57. In addition, in series [3] (setting [6]), the “ON × OFF” value was found to be 0.276 and the “ON × OFF × kcat” value was 7.57. In addition, in series [3] (inhibitor mesotrione), the “Insensitivity, mesotrione, ON × OFF” value is 0.64 and the “Insensitivity, mesotrione, Trait Fitness” value was 8.7. Further, in series [3] (inhibitor tembotrione), the “Insensitivity, tembotrione, ON × OFF” value turned out to be 0.28 and the “Insensitivity, tembotrione, Trait fitness” value was 3.74. Also, in series [4], the Michaelis-Menten constant (Km) was 2.39 µM and the turnover number (kcat) is 0.538 s⁻¹. For the same molecule, the OFF rate ratio in series [5] (setting [6]) turned out to be 0.395. Further, the “Insensitivity, mesotrione, Rate ratio OFF” value in series [5] (inhibitor mesotrione) worked out at 1.00. Further, the “Insensitivity, tembotrione, Rate ratio OFF” value in series [5] (inhibitor tembotrione) is given as 0.39.

Values taken from patent US11015206B2, “Compositions and methods comprising sequences having hydroxyphenylpyruvate dioxygenase (HPPD) activity” (PIONEER HI-BRED INTERNATIONAL, INC., priority 2014, dated 2021).
